Laboratory results as given in article PMC5995969, “Structural basis for the regulation of human 5,10-methylenetetrahydrofolate reductase by phosphorylation and S-adenosylmethionine inhibition” (Nature Communications, 2018).

Experiments:
[1] = tested on: NC(=O)C1=CN([C@@H]2O[C@H](COP(=O)(O)OP(=O)(O)OC[C@H]3O[C@@H](n4cnc5c(N)ncnc54)[C@H](OP(=O)(O)O)[C@@H]3O)[C@@H](O)[C@H]2O)C=CC1; assay: purified protein; details: FAD catalytic domain; binding site shared with CH2-THF, next to FAD; 46.0 °C
[2] = tested on: Nc1nc2c(c(=O)[nH]1)N1CN(c3ccc(C(=O)N[C@@H](CCC(=O)O)C(=O)O)cc3)CC1CN2; assay: purified protein; details: FAD catalytic domain; binding site shared with NAD(P)H, next to FAD; 46.0 °C

5,10-methylenetetrahydrofolate reductase (MTHFR) (Homo sapiens)
Km [1]: 23.5 µM
Km [2]: 22.4 µM
